Measurements as given in the DeepSol protein solubility set.

assay: soluble on expression in E. coli; label from the status in PepcDB or PDB records

Soluble on expression in E. coli, not soluble:
MGSDKIHHHHHHACSLQQYQTKIVANNNYGIYQSLTRKGPVRQMGVTGTFKYSHFQASSVKKIKHNTYWYVLINGHKAGWVNQSAFARNKISVAKRVSLVKNPYYDFNVKDAINYVTDSSGSVVDLDKVHVSQNTVSSAKAGIHNITYTYGKGKAHSLIRVRNDQYEGIVNANKKPQMGKSGVTWFKHFKTSGNWGKGSSYAPETKPHVLKNGNFKLKTVFYQPATLSQGDSKLGVVGPLPEGLAVSDGRMYATMYDRPTRTHAHIVSYQLNQIPNRYVMQKLPWLPWPEFARLSATIKVSPLIKLGHGQAISTSKKYIYVIANNHLLRNNPESEEIMQISKNDLQIKKIWTFKIWDQKSEYGRYVHNAVFLNDHKFIAVYHSSTMNRFEYWEVTRHGNSWYPKEIGATKGEFMRNNSPVQGIAYDKHKKQIYLAFNDYLFKLNRKGRVIENGHFNTGREFEGICVDNKTFYAELAQRPELLKQKLK
MGSDKIHHHHHHACTDGINETVISAYQLPVLPEPSYKFSRNGESSVNVLECGFLKSPIDRIFSEYMNEARMSTKRDYDEALRIYHEGNFGLKPQKEVSASSKHLKDRDKILKDIDAWFETSARIAGLGANIPSYEHRNREAVKGLTGYVGNGIGDKDICYVDERGIAVAEVYKYAIMGAIYLDKILNIHLSEQILENNEVLVRNDLTQLLPGHNYTELEHHWDLAYGYYDFWKTLAQSDGLPALKDCHLRISRSFVKGRALMTTSQYDEMRLQADTIRQELSRVVAVRAMHLLVGPNTLANLKENPRRAFRLLSQAYGLIYAAQFARNMEGKSFLTNEETGILLHELEKGDGLWDKERLLGREQTEGALYNLAVRIGEKFDVSPEDIKK
MGSDKIHHHHHHADKHDHKGQTPLVEVDGNFLYKEDLQAVLPAGLSKDDSLLFAEHYVRSWVEDVLLFNQAQSNIPDNGEIDKLVENYRKALIMHTYQQELISQKLSGEIPEQEIADYYEKNKELFKLDRPLMKGLFIKVPLTAPQLGNVRKWYKTETQDAVEHLEKYSLQNAVKYEYFYDKWVRVADVLDMIPLKAESPEAYMDKNRHIELKDTAFYYFLNISDFRVAGEQEPYEFAQPKVKDMLVNIKRVDFMKQVKDDLYERAVKRKKIINY
MGSDKIHHHHHHAEITLLKQDPQAGDPLSRLNFTVGGSIRPQFNMMTGDGDKGSYKRNGFDGGTRFRFAADYYLFDDISWISYYELGVNIPALFDWDNHYAEGANNTTRRMLYTGLKSDTWGTLTYGQQNSIYYDVVGVKTDIWDYDMIGQAPGNGINGDYDGSYRSRNMLKYKKTVGDVDLYGSYLFEDSEYLPGNGLRYKRKGGGSVGADYHIMKDLTWGTAWNYTRAEMRDPSSADSKTYDQNIVGTALSWTPDNWTFSFGGGWYQNFLTTKKTDVHNYFAGDAWGIEYFAGYKFPINQYAVKSIQPYFMGDRLEYVNGRNYQRIDNGLGISFQLDYGFRVDYEHVFTSSTDNLGDMNLVRLRYDF
MGSDKIHHHHHHAELAELFEVSVRTIYRDIETINRAGIPIVTSQGSGGGIGIMETYRLEREWLKEEELFAIASALQSVSSMYEPVSHSTAYQKIKHLIPEQSTQAFKHQTEKWFIDMTAWGHTEDQKTLREKISAAIDRLLTISFTYTSASGETLLRETEPYTLVCKAGHWYLYAYCLVRNDFRFFKLNRMKDLAILHQTFIRKDIQLDTLPWDKSWYQKDRLTELVILVQPSARQRIGEWFGYDVLHCCEEDEICQAVISLPEDQWLIGFLLQFGKDIEVLQPLHIRDKVKETIHHMQKIYET
MGSDKIHHHHHHAGLPDNLTPVGAERAASPDGRIPAWQGGLSTAQQRLGDNGTPLDPFADEQPLYRITAANYRQYRGQLTDGQVALLKRFPASLSLPVYPTHRSVAVPDAVAASAARNAEQAQLDDQGNGVRGFTGVIAFAQPTNGLEVIWNHLTRHRNVSYSLSSDSVTPLKNGRFVLMSARQEVARPEGLANLGAGNVLYYFTYRMTAPSRLAGDAMVVHETLDQVAEPRLSWVYSASQRRVRRAPNIAYDTTGPGTAGLRTADSRDMFNGAPDRYDWKLLGKQALHVPYNCYRLASPELRYVDLIKPGHIDPAPTRYELHRVWVVEATLKPGAQHIYAKRRFYLDEDTWAILETDSYDARGELWRTSQAHGFFHPSGQVAVNAMEITYDLKSGRYHASGLINEQRRPFAFNVRTSLSYFSPGALRSFGVR
MGSDKIHHHHHHANSTNTIVSTSNMASTAYTRKSATGWTYNLGGTATNMTFGKKTHYLKNYPNTTWHATKKRYIIKKNGVKYLYYYVTNGRKTAAGWIWHGYLQKKSYAHTATTTSSTGTGTYDSILKAAKTQLGKPYAYGGNGPSAFDCSGFTKYVFNQAIGQTLPRTAQAQYDSYTHVSAANAKAGDLIFFGTSASNITHCGIYLGNHKMIDAQLNGVITEATNVSWWHTVGYSRPATLS
MGSDKIHHHHHHAQKKDFSYKFYGQIRTDLYYNSRANEETVDGLFYMYPKDEVFDSNGRDLNATANGSFYTLYTRLGLDVKGPKLGRAMTSAKVEADFRGSGTSYSTIRLRHAYLNLDWGRSALLLGQTWHPLFGDVSPQILNLSVGAPFQPFSRAPQIRYRYTHKGFQLTGAAIWQSQYLSQGIVGKSQTYIKNSCVPEFYLGLDYKANGWIAGAGIELLSLKPRTESKVEDQVYKVNERITTLSYEGHVKYSNKDWFVGAKTVLGSNLTQTSMLGGFGIKSIDNRTGEQKYTPIRVSSSWLNVVYGQKWKPGIFLGYVKNMGTSDALASNQVYGTGTNVDQVVTAGAELTYNVNHWKFGVEYTYTSAAYGSLYLKNGKIIDTHSVGNNRIVGVAMFMF
MGSDKIHHHHHHAQKKTQKTYIPWSNGKLVVSEEGRYLKHENGTPFFWLGETGWLLPERLNRDEAEYYLEQCKRRGYNVIQVQTLNNVPSMNIYGQYSMTDGYNFKNINQKGVYGYWDHMDYIIRTAAKKGLYIGMVCIWGSPVSHGEMNVDQAKAYGKFLAERYKDEPNIIWFIGGDIRGDVKTAEWEALATSIKAIDKNHLMTFHPRGRTTSATWFNNAPWLDFNMFQSGHRRYGQRFGDGDYPIEENTEEDNWRFVERSMAMKPMKPVIDGEPIYEEIPHGLHDENELLWKDYDVRRYAYWSVFAGSFGHTYGHNSIMQFIKPGVGGAYGAKKPWYDALNDPGYNQMKYLKNLMLTFPFFERVPDQSVIAGQNGERYDRAIATRGNDYLMVYNYTGRPMEVDFSKISGAKKNAWWYTTKDGKLEYIGEFDNGVHKFQHDSGYSSGNDHVLIVVDSSKDYVKKDCYQIDTHE
MGSDKIHHHHHHAQNFSDYFTNKTLRIDYLFTGNADKQSICLDELSELPVWAGRRHHLSELPLEGNGQIVMRDVASGKVIYTTSFSSLFQEWLETDEAKEVTKGFENTYLLPYPIKPAEVEITLRNNKREVSANLKHVVKPDDILIHKKGLTHITPHKYLLKSGNEEQCIDVAILAEGYTTSEMETFYKDAAIACEALFSHEPFQSMKNRFNIVAVASPSADSGVSAPKQGAWKHTAFGSHFDTFYSDRYLTTSRVKAINDALAGIPYEHIIILANTEQYGGGGIYNAFTLTTAHHPNFRPVVVHEFGHSFGGLADEYFYDEDVMNGLYPLNIEPWEQNITTRINFASKWEDMLTKTTPVPTPVADKAKYPIGVYEGGGYSAKGIYRPAFDCRMRTNEYPTFCPVCQRAIQRIIEFYTGK
MGSDKIHHHHHHCEDIFNDLAVNPNQSDVNSFYTTLENCNKGILGIYGYISTPRNLGACGFGLMLTRSDEGCSVADYGVPGAYNEEFTPSYYSLVQPFQLMYTAASQANQMIESLTEIEFSNKELQDAYLGEAYFLRAFTHFFLFINYRNIPLIKELPKAPNEYKPQATPEEAWDFIIDDLIKAKDLLPDKNFWDAKNKGRVTKASAYALLGKSYLYRSGIEPKYGTSQTTYYNEAAAAFAEIINGNCGNYRLVDDYSWNFDVAHENNDESIFEVQFVGVLNTGFNPGFVDSGLFNDVRCKMCIMNRSRNSNSSAQVMHNWLYDKFVASKTVTGETDPRMFGSFVFNDNVSEIIRPKGMKVTFLEGKDWEAEMGSKEGTFGEQYELAMGYKMCSRKWLDWTLPPTDDAGGHFFNGRAQGVNWRMIRYSDVLLMYAEAVVMGGKATANITPLEAINKVRDRVGVPHVTEANMRTIEDERILELTYEGFRFFDLLRWGKVVERFRELENTDPLFKRFSRAQYMGFKENKNEWVPLPIDEVEGNPYITKNNPGW
